Substitutions are numbered along the chain they refer to. Numbers in names are those of the source. Values belong to the binder of their own block, whether it stands above or below them.
Key:
[1] = molecular target: T1, human PD-L1 on cells (PHA-activated human T cells); PD-L1-transfected CHO-S cells; A375 melanoma cells; … (human, UniProt Q9NZQ7 19-290); assay: flow cytometry on NCI-H292 human NSCLC cells, biotin-labeled anti-human IgG Fcγ and streptavidin-PE, MFI
T1 construct: whole, on cells; also called PD-L1 expressing T cells; PD-L1 expressing CHO-S cells

[2] = molecular target: T1, human PD-L1 on cells (PHA-activated …); assay: flow cytometry on A375 human melanoma cells, biotin-labeled anti-human IgG Fcγ and streptavidin-PE, MFI
[3] = molecular target: T2, mouse PD-L1 on B16-F10 melanoma cells (mouse, UniProt Q9EP73 19-290); assay: flow cytometry on mouse PD-L1 expressing B16-F10 melanoma cells, FITC-labeled anti-human IgG Fcγ, MFI
T2 construct: whole, on cells

[4] = molecular target: T3, recombinant cynomolgus monkey PD-L1_ECD Fc-fusion protein (Sino Biological Inc.) (cynomolgus monkey, UniProt G7PSE7 19-238); assay: ELISA: cynomolgus monkey PD-L1_ECD/Fc coated (9 ng/well), peroxidase-labeled goat anti-human IgG F(ab)'2, TMB, OD450
T3 construct: Bought
Procedure: The recombinant cynomolgus monkey PD-L1_ECD Fc-fusion proteins were purchased from Sino Biological Inc. PD-L1_ECD/Fc (9 ng per well) were immobilized onto 96-well assay plat by incubating overnight at 4° C. Nonspecific binding sites were blocked using 5% skim milk in PBS for one hour at room temperature. After washing plates three times with PBST, indicated concentrations of anti-PD-L1 antibodies and HLX01 (negative control) were incubated with the immobilized proteins for one hour at room temperature. The plates were washed three times with PBST and then incubated for one hour at room temperature with peroxidase-labeled goat anti-human IgG F(ab)′2 (Jackson ImmunoResearch Laboratories) diluted 1/10,000 in PBS. After washing, plates were developed using TMB (eBioscience). The absorbance was read at the wavelength of 450 nm by Varioskan LUX microplate reader (Thermo Scientific).
HLX01 (anti-CD20 mAb) was used as the negative control.

[5] = molecular target: T1, human PD-L1 on cells (PHA-activated …); assay: flow cytometry on PD-L1 transfected CHO-S cells, anti-human IgG Fc-FITC, MFI
Procedure: Binding of tested de-glycosylated variants was assessed by incubating the PD-L1 expressing CHO-S cells (2E5 cells/well) with the serial-diluted antibodies in FACS buffer (PBS with 1% FBS) at 4° C. for 30 minutes. These cells were washed with flow buffer and then stained with anti-human IgG Fc-FITC (1:500×) at 4° C. for 30 minutes to detect antibody binding on the cell surface. Flow cytometric analyses were performed using CytoFlex (Beckman Coulter Inc.).

[6] = molecular target: T4, human PD-L1 ECD-His (human, UniProt Q9NZQ7 19-238); assay: BLI Octet RED96, antibody on AHC anti-human-Fc sensor, hPD-L1-His analyte, 1:1 fit
T4 construct: extracellular domain; Analyte in all SPR and BLI runs; also called hPD-L1_ECD-His; hPD-L1 ECD-His; not shown: His tag
Procedure: (§1) Briefly, black 96-well plate was prepared with columns containing 200 μL/well of reagents required for determination of affinity. In general, Octet anti-human-Fc sensors were first placed in wells containing 1×Kinetics Buffer (PBS, 0.1% BSA, 0.02% Tween-20, pH 7.4) for 180 seconds to establish a baseline. Sensors were then transferred to wells containing […] anti-PD-L1 variants for 600 seconds to load the anti-human-Fc tips. Sensors were then placed in fresh 1×Kinetics Buffer for 180 seconds to establish a baseline. Association was then measured by incubating the sensors for 3 minutes in wells containing hPD-L1-His followed by transferring to wells containing 1×Kinetics Buffer for 10 minutes to measure dissociation. Sensors were then regenerated by 3X5 second incubations in Regeneration Buffer (10 mM Glycine, pH 1.5) followed by a 5 second incubation in 1×Kinetics Buffer each time. Regeneration was repeated before measurement of each association/dissociation cycle. […] All data were analyzed with Octet Data Analysis Software v.9.0 and representative of two independent experiments performed in duplicate.
(§2) All the data are representative of two independent experiments performed in duplicate.

[7] = molecular target: T4, human PD-L1 ECD-His; assay: BLI, ratio of KD to parental PL3#7-19
Procedure: as §1, §2

[8] = molecular target: T4, human PD-L1 ECD-His; assay: BLI Octet RED96, biotinylated antibody on SA sensor, hPD-L1-His analyte, 1:1 fit
Procedure: (§3) Briefly, black 96-well plate was prepared with columns containing 200 μL/well of reagents required for determination of affinity. In general, Octet SA sensors were first placed in wells containing 1×Kinetics Buffer (PBS, 0.1% BSA, 0.02% Tween-20, pH 7.4) for 180 seconds to establish a baseline. […] Sensors were then regenerated by 3×5 second incubations in Regeneration Buffer (10 mM Glycine, pH 1.5) followed by a 5 second incubation in 1×Kinetics Buffer each time. Regeneration was repeated before measurement of each association/dissociation cycle. Sensors were then placed in fresh 1×Kinetics Buffer for 180 seconds to establish a baseline. Association was then measured by incubating the sensors for 5 minutes in wells containing hPD-L1-His followed by transferring to wells containing 1×Kinetics Buffer for 10 minutes to measure dissociation. Kinetics (ka, kd, and […] were measured by global fitting four association/dissociation cycles of data obtained from 1:3 serial dilutions of hPD-L1-His from 38.28 nM to 1.42 nM (one association/dissociation cycle for one concentration) with a 1:1 Langmuir binding model. All data were analyzed with Octet Data Analysis Software v.9.0 and representative of two independent experiments performed in duplicate.
as §2

[9] = molecular target: T4, human PD-L1 ECD-His; assay: BLI, ratio of KD to ref-1
Procedure: as §3, §2

[10] = molecular target: T4, human PD-L1 ECD-His; assay: Fab ELISA screen after panning on hPD-L1-His; coated antigen not named
[11] = molecular target: T4, human PD-L1 ECD-His; assay: BLI, ratio of KD to parental PL3#7-43
Procedure: as §1, §2

[12] = molecular target: T1, human PD-L1 on cells (PHA-activated …); assay: flow cytometry on PHA-activated human T cells, biotin-labeled anti-human IgG Fcγ and streptavidin-PE, MFI

T1 sequence (Q9NZQ7 19-290): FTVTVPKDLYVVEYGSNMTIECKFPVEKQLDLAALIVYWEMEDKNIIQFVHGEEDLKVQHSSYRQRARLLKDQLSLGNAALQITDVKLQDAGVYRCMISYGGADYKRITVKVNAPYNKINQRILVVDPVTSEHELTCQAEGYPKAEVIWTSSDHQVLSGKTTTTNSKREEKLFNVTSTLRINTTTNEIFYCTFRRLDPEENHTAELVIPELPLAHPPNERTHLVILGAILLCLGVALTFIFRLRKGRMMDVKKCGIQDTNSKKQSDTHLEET
T4 sequence (Q9NZQ7 19-238): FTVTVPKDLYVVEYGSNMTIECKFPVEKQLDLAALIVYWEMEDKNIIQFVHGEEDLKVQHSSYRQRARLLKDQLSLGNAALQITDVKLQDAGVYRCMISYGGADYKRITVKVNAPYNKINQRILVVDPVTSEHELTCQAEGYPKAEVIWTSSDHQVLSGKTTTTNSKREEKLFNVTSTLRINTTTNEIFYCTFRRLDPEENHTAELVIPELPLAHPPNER
T2 sequence (Q9EP73 19-290): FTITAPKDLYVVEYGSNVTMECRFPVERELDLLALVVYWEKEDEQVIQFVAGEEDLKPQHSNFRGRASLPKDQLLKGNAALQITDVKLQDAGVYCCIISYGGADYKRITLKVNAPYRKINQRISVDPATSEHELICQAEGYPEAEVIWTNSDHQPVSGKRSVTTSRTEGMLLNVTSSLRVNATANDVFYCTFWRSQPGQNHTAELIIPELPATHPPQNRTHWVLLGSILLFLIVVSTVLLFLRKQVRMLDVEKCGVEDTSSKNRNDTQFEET
T3 sequence (G7PSE7 entry or part of it limits assumed): as the sequence (Q9NZQ7 19-238) above, with A33T, A34S, S62N, R68Q, Q82R, F173L, T185A, T192I, H215L counted along it

binding result [10]: binds
B2: PL3#7-54 Fab (Fab, V domains shown)
VH: QVQLVQSGAEVKKPGSSVKVSCKASGGTFSSYPISWVRQAPGQGLEWMGRIIPILGIADYAQKFQGRVTITADKSTSTAYMELSSLRSEDTAVYYCARSRPGYAFGAFDIWGQGTLVTVSS
VL: QSVVTQPPPVSGAPGQRVTISCTGSSSNIGQGYDVHWYQQLPGTAPKLLIYANSNRPSGVPDRFSGSKSGTSASLAITGLQAEDEADYYCQTYDSSLSARVVFGGGTKLTVL

binding result [10]: binds
B3: PL3#7-19 Fab (Fab, V domains shown)
VH: B2 VH with D59N, P101D, I110V
VL: B2 VL with Q31G, A52G, N55T, R100T

EC50 (read off the curve) [1]: ~0.01 µg/mL | EC50 (read off the curve) [2]: ~0.002 µg/mL | EC50 (read off the curve) [3]: ~0.005 µg/mL | EC50 (read off the curve) [4]: ~0.04 µg/mL | EC50 (read off the curve) [5]: ~0.2 µg/mL | Kd [6]: 345 pM | koff [6]: 0.000212 s⁻¹ | kon [6]: 628000 M⁻¹ s⁻¹ | Fold Difference (against parental variant) [11]: 1 fold | Kd [8]: 313 pM | koff [8]: 0.000103 s⁻¹ | kon [8]: 330000 M⁻¹ s⁻¹ | EC50 (read off the curve) [12]: ~0.008 µg/mL | Improvement over ref-1 [9]: 7.86 fold
B6: PL3#7-43 mtIgG1 (antibody, V domains shown)
VH: B2 VH with D59N
VL: QSVVTQPPPVSGAPGQRVTISCTGSSSNVGAGYDVHWYQQLPGTAPKLLIYGNSNRSSGVPDRFSGSKSGTSASLAITGLQAEDEADYYCQTYDSSGSARVVFGGGTKLTVLG
modifications: Antibody was biotinylated (NHS-PEG4-biotin, sites not specified) for the Octet assay of Table 11.
notes: N297A mutant human IgG1; also called PL3#7-43 parental mtIgG1

binding result [10]: binds
B7: PL3#7-43 Fab (Fab, V domains shown)
VH: B2 VH with D59N
VL: B2 VL with I29V, Q31A, A52G, P57S, L97G

Second part, the binder before the results:

B1: PL3#7-19 mtIgG1 (antibody, V domains shown)
VH: B2 VH with D59N, P101D, I110V
VL: B6 VL with V29I, A31G, N55T, S57P, G97L, R100T
modifications: Antibody was biotinylated (NHS-PEG4-biotin, sites not specified) for the Octet assay of Table 11.
notes: N297A mutant human IgG1; also called PL3#7-19 parental mtIgG1
EC50 (read off the curve) [1]: ~0.02 µg/mL | EC50 (read off the curve) [2]: ~0.01 µg/mL | binding result [3]: no binding (tested: 5 µg/mL) | EC50 (read off the curve) [4]: ~0.05 µg/mL | EC50 (read off the curve) [5]: ~0.2 µg/mL | Kd [6]: 619 pM | koff [6]: 0.000207 s⁻¹ | kon [6]: 328000 M⁻¹ s⁻¹ | Fold Difference (against parental variant) [7]: 1 fold | Kd [8]: 538 pM | koff [8]: 0.000201 s⁻¹ | kon [8]: 419000 M⁻¹ s⁻¹ | Improvement over ref-1 [9]: 4.57 fold

B4: PL3#7-43 deglyco2 mtIgG1 (antibody, V domains shown)
VH: B2 VH with D59N
VL: B6 VL with N55Q
notes: N297A mutant human IgG1; also called PL3#7-43 deg1yco2
EC50 (read off the curve) [5]: ~0.2 µg/mL | Kd [6]: 395 pM | koff [6]: 0.000238 s⁻¹ | kon [6]: 600000 M⁻¹ s⁻¹ | Fold Difference (against parental variant) [11]: 0.87 fold

B5: PL3#7-43 deglyco1 mtIgG1 (antibody, V domains shown)
VH: B2 VH with D59N
VL: B6 VL with S57P
notes: N297A mutant human IgG1; also called PL3#7-43 deglycol
EC50 (read off the curve) [5]: ~0.2 µg/mL | Kd [6]: 439 pM | koff [6]: 0.000271 s⁻¹ | kon [6]: 612000 M⁻¹ s⁻¹ | Fold Difference (against parental variant) [11]: 0.79 fold

From patent US20190225691A1 (SHANGHAI HENLIUS BIOTECH, published 2019)
